Data published in patent US20090286242A1, “MicroRNA Expression Profiling and Uses Thereof” (COLD SPRING HARBOR LABORATORY, priority 2007, published 2009).

What was measured:
Comma-Dβ cells = experiment: ALDEFLUOR / Sca-1 FACS analysis of Comma-Dβ cell compartments; format: cell-based, mouse; settings: ectopic expression in Comma-Dβ cells
miR-205 = experiment: Stem-loop qRT-PCR of mature miRNA in Wnt-1-expressing Comma-Dβ cells; format: cell-based, mouse; settings: data not shown
Description: 1-4 μg of total RNA from sorted cells was used for small RNA cloning performed as described in Pfeffer et al, 2005 (incorporated by reference). Illumina 1G sequencing and analysis was performed as described Stark et al. 2007 (incorporated by reference). miRNA expression analyses mature miRNAs were quantified using the TaqMan MicroRNA Assays previously described by Chen et al., 2005 (Applied Biosystems, incorporated by reference).
Data was normalized to Actin using SuperScript III SYBR Green One-Step qRT-PCR system (Invitrogen). The experiments were repeated twice and all reactions were run in triplicate.

B1: Wnt-1: Wnt-1 ectopically expressed from an MSCV-hygro vector (Wnt-1MSCV) (protein, UniProt P04426 28-370, looked up)
Proto-oncogene Wnt-1: ANSSGRWWGIVNIASSTNLLTDSKSLQLVLEPSLQLLSRKQRRLIRQNPGILHSVSGGLQSAVRECKWQFRNRRWNCPTAPGPHLFGKIVNRGCRETAFIFAITSAGVTHSVARSCSEGSIESCTCDYRRRGPGGPDWHWGGCSDNIDFGRLFGREFVDSGEKGRDLRFLMNLHNNEAGRTTVFSEMRQECKCHGMSGSCTVRTCWMRLPTLRAVGDVLRDRFDGASRVLYGNRGSNRASRAELLRLEPEDPAHKPPSPHDLVYFEKSPNFCTYSGRLGTAGTAGRACNSSSPALDGCELLCCGRGHRTRTQRVTERCNCTFHWCCHVSCRNCTHTRVLHECL
Comma-Dβ cells
  increase in the ALDH bright Sca-1 high population: 3.5 fold
miR-205
  miR-205 level compared to empty vector control cells: 6 fold
